This is an account of results in PMC11203801.

Common to all, as to conditions: remark: other sources report otherwise
Test [1] addresses human HSP60 (60-kDa Heat Shock Protein) (human), P10809. Nature of the test: native gel or EMSA; HSP60 and HSP10 mixed at the same molar ratio, PBS or Mizoribine below 10 mM (1, 5 mM); Native/PAGE gradient gel, Coomassie stain. For orientation: Mobility shift assays separate free from complexed probe on a gel.
For test [2] the target is unchanged. Briefly: negative-stain transmission electron microscopy; HSP60 and HSP10 (0.1 mM) incubated for 10 min with 10 mM Mizoribine, treated with 2% uranyl acetate; particles classified and counted.
The target is the same in test [3]. Nature of the test: negative-stain transmission electron microscopy; HSP60 and HSP10 (0.1 mM) incubated for 10 min in the absence of Mizoribine, treated with 2% uranyl acetate; particles classified and counted.
The target is the same in test [4]. Nature of the test: native gel or EMSA; purified HSP60 and HSP10 each run on Native-PAGE (5-12% gradient gel by the legend; Blue NativePAGE 3-12% Bis-Tris by the methods), in the absence of ATP, Coomassie stain.

B1: human HSP60 (60-kDa Heat Shock Protein), P10809 27-573 (natural protein)
chain: AKDVKFGADARALMLQGVDLLADAVAVTMGPKGRTVIIEQSWGSPKVTKDGVTVAKSIDLKDKYKNIGAKLVQDVANNTNEEAGDGTTTATVLARSIAKEGFEKISKGANPVEIRRGVMLAVDAVIAELKKQSKPVTTPEEIAQVATISANGDKEIGNIISDAMKKVGRKGVITVKDGKTLNDELEIIEGMKFDRGYISPYFINTSKGQKCEFQDAYVLLSEKKISSIQSIVPALEIANAHRKPLVIIAEDVDGEALSTLVLNRLKVGLQVVAVKAPGFGDNRKNQLKDMAIATGGAVFGEEGLTLNLEDVQPHDLGKVGEVIVTKDDAMLLKGKGDKAQIEKRIQEIIEQLDVTTSEYEKEKLNERLAKLSDGVAVLKVGGTSDVEVNEKKDRVTDALNATRAAVEEGIVLGGGCALLRCIPALDSLTPANEDQKIGIEIIKRTLKIPAMTIAKNAGVEGSLIVEKIMQSSSEVGYDAMAGDFVNMVEKGIIDPTKVVRTALLDAAGVASLLTTAEVVVTEIPKEEKDPGMGAMGGMGGGMGGGMF
By stoichiometry N is commonly meant a count of units in the complex or per binding partner. B1: the stoichiometry N in test [1], in test [3] and in test [4] was 7 throughout. The same molecule registered a share of observed particles as HSP60 (7) (single ring structure, no HSP10), with 10 mM Mizoribine in test [2] of 4%.
